In patent publication US20170189510A1:

target: HLA-A*24 (human); test: UV-ligand exchange, anti-b2m ELISA

**Q.** TYTQDFNKF [peptide SEQ ID No 208 …] was tested. Which peptide exchange yield did it give?
**A.** 50 to 75%

**Q.** With IYDDSFIRPVTF [peptide SEQ ID No 180 …] as the binder, how does the peptide exchange yield read?
**A.** 50 to 75%

**Q.** KFVDSTFYL [peptide SEQ ID No 282 …] was tested. Which peptide exchange yield did it give?
**A.** > 75%

**Q.** For MYDSYWRQF [peptide SEQ ID No 179 …], which peptide exchange yield is on record?
**A.** > 75%

**Q.** With KFSSFSLFF [peptide SEQ ID No 164 …] as the binder, how does the peptide exchange yield read?
**A.** 50 to 75%

**Q.** With AYTLIAPNI [peptide SEQ ID No 169 …] as the binder, how does the peptide exchange yield read?
**A.** 50 to 75%

**Q.** Which peptide exchange yield does the source give for DYLKGLASF [peptide SEQ ID No 163 …] here?
**A.** > 75%

**Q.** For TYIESASEL [peptide SEQ ID No 279 …], which peptide exchange yield is on record?
**A.** 50 to 75%

**Q.** With IYTMIYRNL [peptide SEQ ID No 210 …] as the binder, how does the peptide exchange yield read?
**A.** > 75%

**Q.** How did the peptide exchange yield turn out when VYTLDIPVL [peptide SEQ ID No 160 …] was run?
**A.** > 75%

**Q.** Which peptide exchange yield does the source give for IYSWILDHF [peptide SEQ ID No 173 …] here?
**A.** > 75%

**Q.** Which peptide exchange yield does the source give for KYMVYPQTF [peptide SEQ ID No 267 …] here?
**A.** > 75%

**Q.** How did the peptide exchange yield turn out when DYTTWTALL [peptide SEQ ID No 165 …] was run?
**A.** > 75%

**Q.** How did the peptide exchange yield turn out when TYLRDQHFL [peptide SEQ ID No 187 …] was run?
**A.** > 75%

**Q.** For YYVESGKLF [peptide SEQ ID No 166 …], which peptide exchange yield is on record?
**A.** > 75%

**Q.** For AYLHSHALI [peptide SEQ ID No 274 …], which peptide exchange yield is on record?
**A.** > 75%

**Q.** How did the peptide exchange yield turn out when FYSRLLQKF [peptide SEQ ID No 203 …] was run?
**A.** 50 to 75%

**Q.** RYSTGLAGNLL [peptide SEQ ID No 221 …] was tested. Which peptide exchange yield did it give?
**A.** 50 to 75%

**Q.** With HYSQELSLLYL [peptide SEQ ID No 158 …] as the binder, how does the peptide exchange yield read?
**A.** > 75%

**Q.** How did the peptide exchange yield turn out when TYTTVPRVAF [peptide SEQ ID No 172 …] was run?
**A.** > 75%

**Q.** How did the peptide exchange yield turn out when IFPQFLYQF [peptide SEQ ID No 186 …] was run?
**A.** > 75%

**Q.** How did the peptide exchange yield turn out when IYKVGAPTI [peptide SEQ ID No 185 …] was run?
**A.** 50 to 75%

**Q.** Which peptide exchange yield does the source give for LYNKGFIYL [peptide SEQ ID No 159 …] here?
**A.** > 75%

**Q.** For FFPPTRQMGLLF [peptide SEQ ID No 217 …], which peptide exchange yield is on record?
**A.** > 75%

**Q.** With LYLKLWNLI [peptide SEQ ID No 214 …] as the binder, how does the peptide exchange yield read?
**A.** 50 to 75%

**Q.** With EYPLVINTL [peptide SEQ ID No 219 …] as the binder, how does the peptide exchange yield read?
**A.** 50 to 75%

**Q.** How did the peptide exchange yield turn out when LYLDKATLI [peptide SEQ ID No 198 …] was run?
**A.** 50 to 75%

**Q.** VFKASKITF [peptide SEQ ID No 191 …] was tested. Which peptide exchange yield did it give?
**A.** 50 to 75%

**Q.** How did the peptide exchange yield turn out when IYLVSIPEL [peptide SEQ ID No 161 …] was run?
**A.** > 75%

**Q.** Which peptide exchange yield does the source give for TYSVSFPMF [peptide SEQ ID No 195 …] here?
**A.** > 75%

**Q.** EYNQWFTKL [peptide SEQ ID No 176 …] was tested. Which peptide exchange yield did it give?
**A.** 50 to 75%

**Q.** With TYIKPISKL [peptide SEQ ID No 273 …] as the binder, how does the peptide exchange yield read?
**A.** 50 to 75%

**Q.** QYSSVFKSL [peptide SEQ ID No 216 …] was tested. Which peptide exchange yield did it give?
**A.** > 75%

**Q.** For VYPWLGALL [peptide SEQ ID No 177 …], which peptide exchange yield is on record?
**A.** > 75%

**Q.** RYFKGLVF [peptide SEQ ID No 188 RYFKGLVF] was tested. Which peptide exchange yield did it give?
**A.** 50 to 75%

**Q.** How did the peptide exchange yield turn out when EYSLFPGQVVI [peptide SEQ ID No 197 …] was run?
**A.** 50 to 75%

**Q.** For IFIEVFSHF [peptide SEQ ID No 178 …], which peptide exchange yield is on record?
**A.** 50 to 75%

**Q.** For VYVGGGQIIHL [peptide SEQ ID No 174 …], which peptide exchange yield is on record?
**A.** 50 to 75%

**Q.** For VYGFQWRHF [peptide SEQ ID No 276 …], which peptide exchange yield is on record?
**A.** > 75%

**Q.** RYPDNLKHLYL [peptide SEQ ID No 280 …] was tested. Which peptide exchange yield did it give?
**A.** > 75%

**Q.** How did the peptide exchange yield turn out when LYHDIFSRL [peptide SEQ ID No 271 …] was run?
**A.** > 75%

**Q.** YYEVHKELF [peptide SEQ ID No 175 …] was tested. Which peptide exchange yield did it give?
**A.** > 75%

**Q.** How did the peptide exchange yield turn out when LYIDRPLPYL [peptide SEQ ID No 196 …] was run?
**A.** 50 to 75%

**Q.** VFQNFPLLF [peptide SEQ ID No 184 …] was tested. Which peptide exchange yield did it give?
**A.** > 75%

**Q.** With YYVYIMNHL [peptide SEQ ID No 225 …] as the binder, how does the peptide exchange yield read?
**A.** 50 to 75%

**Q.** For VFTSTARAF [peptide SEQ ID No 183 …], which peptide exchange yield is on record?
**A.** 50 to 75%

**Q.** For KYPVEWAKF [peptide SEQ ID No 289 …], which peptide exchange yield is on record?
**A.** > 75%

**Q.** RYISDQLFTNF [peptide SEQ ID No 278 …] was tested. Which peptide exchange yield did it give?
**A.** > 75%

**Q.** For YFDKVVTL [peptide SEQ ID No 215 YFDKVVTL], which peptide exchange yield is on record?
**A.** 20 to 49%

**Q.** How did the peptide exchange yield turn out when IYQLDTASI [peptide SEQ ID No 182 …] was run?
**A.** 50 to 75%

**Q.** Which peptide exchange yield does the source give for VYEDQVGKF [peptide SEQ ID No 170 …] here?
**A.** 20 to 49%

**Q.** How did the peptide exchange yield turn out when VYVSDIQEL [peptide SEQ ID No 288 …] was run?
**A.** 50 to 75%

**Q.** IFLDYEAGTLSF [peptide SEQ ID No 227 …] was tested. Which peptide exchange yield did it give?
**A.** > 75%

**Q.** How did the peptide exchange yield turn out when LFIPSSKLLFL [peptide SEQ ID No 171 …] was run?
**A.** 50 to 75%

**Q.** For RFHPTPLLL [peptide SEQ ID No 193 …], which peptide exchange yield is on record?
**A.** > 75%

**Q.** How did the peptide exchange yield turn out when SYALLTYMI [peptide SEQ ID No 192 …] was run?
**A.** > 75%

**Q.** Which peptide exchange yield does the source give for VFTRVSSFL [peptide SEQ ID No 162 …] here?
**A.** 50 to 75%

**Q.** Which peptide exchange yield does the source give for YYLEVGKTLI [peptide SEQ ID No 211 …] here?
**A.** > 75%

**Q.** Which peptide exchange yield does the source give for KYQDILETI [peptide SEQ ID No 168 …] here?
**A.** > 75%

**Q.** Which peptide exchange yield does the source give for NYINRILKL [peptide SEQ ID No 167 …] here?
**A.** > 75%

**Q.** EYQENFLSF [peptide SEQ ID No 206 …] was tested. Which peptide exchange yield did it give?
**A.** 50 to 75%

**Q.** How did the peptide exchange yield turn out when RYPDNLKHL [peptide SEQ ID No 286 …] was run?
**A.** 20 to 49%

**Q.** How did the peptide exchange yield turn out when VHIPEVYLI [peptide SEQ ID No 205 …] was run?
**A.** 50 to 75%

**Q.** TYGDAGLTYTF [peptide SEQ ID No 283 …] was tested. Which peptide exchange yield did it give?
**A.** 50 to 75%

**Q.** How did the peptide exchange yield turn out when WYVNGVNYF [peptide SEQ ID No 189 …] was run?
**A.** 20 to 49%

**Q.** For QYLENLEKL [peptide SEQ ID No 224 …], which peptide exchange yield is on record?
**A.** 50 to 75%

**Q.** For RYLNKAFHI [peptide SEQ ID No 284 …], which peptide exchange yield is on record?
**A.** 50 to 75%

**Q.** How did the peptide exchange yield turn out when LYLDIINLF [peptide SEQ ID No 181 …] was run?
**A.** > 75%

**Q.** With GFFIFNERF [peptide SEQ ID No 190 …] as the binder, how does the peptide exchange yield read?
**A.** 50 to 75%

**Q.** QYLQDAYSF [peptide SEQ ID No 272 …] was tested. Which peptide exchange yield did it give?
**A.** > 75%

**Q.** With EYINQGDLHEF [peptide SEQ ID No 275 …] as the binder, how does the peptide exchange yield read?
**A.** 50 to 75%

**Q.** Which peptide exchange yield does the source give for KYTSWYVAL [peptide SEQ ID No 228 …] here?
**A.** > 75%

**Q.** For VYRDETGELF [peptide SEQ ID No 226 …], which peptide exchange yield is on record?
**A.** 50 to 75%

**Q.** With KYIPYKYVI [peptide SEQ ID No 223 …] as the binder, how does the peptide exchange yield read?
**A.** 50 to 75%

**Q.** Which peptide exchange yield does the source give for EFGSLHLEFL [peptide SEQ ID No 194 …] here?
**A.** < 20%
